{"source": "paper doi:10.1101/2022.05.07.491029", "key": {"[1]": {"target": "HSV-1 gB-Sm (herpes simplex virus 1 (strain KOS)) (UniProt P06437)", "experiment": "split reporter"}, "[2]": {"target": "HSV-1 gD-Sm (herpes simplex virus 1 (strain KOS)) (UniProt Q69091)", "sequence (Q69091 26-394)": "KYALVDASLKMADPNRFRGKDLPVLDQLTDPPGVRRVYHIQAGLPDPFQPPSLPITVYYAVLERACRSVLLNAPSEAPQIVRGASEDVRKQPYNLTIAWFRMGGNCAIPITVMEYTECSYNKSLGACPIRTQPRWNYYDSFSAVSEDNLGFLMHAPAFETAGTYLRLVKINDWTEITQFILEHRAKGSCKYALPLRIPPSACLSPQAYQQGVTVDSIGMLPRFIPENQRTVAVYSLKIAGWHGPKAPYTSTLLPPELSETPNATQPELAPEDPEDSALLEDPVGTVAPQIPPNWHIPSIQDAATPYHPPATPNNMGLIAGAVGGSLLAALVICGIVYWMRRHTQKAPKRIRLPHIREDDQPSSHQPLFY", "experiment": "split reporter"}}, "data": [{"substance": "HSV-1 gH-Lg expressed without gL (from UniProt P06477 19-838) (natural protein)", "values": [{"measurement": "fold reduction of the NanoBiT interaction in the absence of gL against gH/gL", "setting": "[1]", "result": 2, "unit": "fold"}, {"measurement": "fold reduction of the NanoBiT interaction in the absence of gL against gH/gL", "setting": "[2]", "result": 6, "unit": "fold"}]}]}
